Experiments:
Test in all cases: pull-down binding Z-score (relative to library population); higher = stronger binding
[1] = system: TO-N3-2 (biotin conjugate); details: RNA library: Library-2
How it was run: (§1)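 An RNA library (1 μg) carrying a Cy5 or Cy3 end label was heat-folded in phosphate/NaCl/KCl buffer, then incubated for 60 min at 25 °C with streptavidin beads loaded with 100 pmol of biotin-conjugated small molecule. The beads were washed three times, and bound RNA was released in hot SDS and hybridised to a DNA barcode microarray for 20 h at 55.5 °C. Each binding score was derived by subtracting the signal from beads without compound, averaging the barcoded replicate probes after removing the highest and lowest, and expressing the result as a Z-score relative to the library mean and standard deviation.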

TO-N3 (biotin conjugate) = details: RNA library: Library-2
How it was run: as §1

[2] = system: TO-3-N3 (biotin conjugate); details: RNA library: Library-2
How it was run: as §1

[3] = system: TO-3-N3-2 (biotin conjugate); details: RNA library: Library-2
How it was run: as §1

[4] = system: G-clamp-N3 (biotin conjugate); details: RNA library: Library-1 (pre-miRNA loops + repeats)
How it was run: as §1

Sequence	pull-down binding Z-score [1]	pull-down binding Z-score (TO-N3 (biotin conjugate))	pull-down binding Z-score [2]	pull-down binding Z-score [3]	pull-down binding Z-score [4]
CCCACGGCCCUUGUCAGUGUG [hsa-mir-3190]	0.517	0.809	0.791	-0.14	-1.69
CCCACGUCGCAUGCGCCCCGGGAAAGCGUGGG [hsa-mir-3180-1_3180-3_3180-2]	0.515	0.682	0.614	-0.158	1.94
CCCACUCCAAAGUUCACAGAAUGGGUGG [hsa-mir-541]	1.15	1.8	2.05	0.837	0.626
CCCACUUCCUGGA [hsa-mir-4260]	-0.0316	-0.494	-0.513	-0.529	-0.562
CCCAGAGAAAGCCUGAACGUUGGG [hsa-mir-585]	0.386	0.119	-0.148	0.0232	-0.188
CCCAGCCUUCCAGAGUUGGUGCCAGG [hsa-mir-4476]	1.11	1.14	0.892	0.0973	-0.593
CCCAGCCUUGGCGUUCAGGUGCUGAG [hsa-mir-3150b]	0.723	-0.022	-0.0824	-0.23	-0.3
CCCAGCUUUGUGACUGUAAGUGUUGGA [hsa-mir-184]	0.734	0.723	0.669	0.088	0.351
CCCAUAAGGGUCGAAUGGG [hsa-mir-4713]	0.0587	0.272	0.401	-0.0623	-0.205
CCCAUAUAAUAUUAGGGG [hsa-mir-4483]	-0.667	-0.783	-0.469	0.176	2.5
CCCAUAUGAACAUACAAUGCUAUGGA [hsa-mir-1-2]	-0.206	-0.569	-0.62	-0.224	-0.76
CCCAUAUGGACCUGCUAAGCUAUGGA [hsa-mir-1-1]	0.361	0.289	-0.0116	-0.0364	-0.475
CCCAUAUGGAUUACUUUGCUAUGGA [hsa-mir-206]	0.0791	0.036	0.0156	-0.188	-0.287
CCCAUUUAAAAUAUGGAA [hsa-mir-548ai]	-0.0504	0.322	0.535	-0.0892	-2.02
CCCCCAAUUAAAGUAGAUUGGGGG [hsa-mir-3153]	-1.29	-0.725	-0.415	-0.696	0.917
CCCCGCGCGCGGACAGACACACGGACAAGUCCCGCCAGGGG [hsa-mir-4492]	4.65	1.59	-0.131	-0.38	-0.362

Sequence	pull-down binding Z-score [1]	pull-down binding Z-score (TO-N3 (biotin conjugate))	pull-down binding Z-score [2]	pull-down binding Z-score [3]	pull-down binding Z-score [4]
CCCGAGCUGGGCAGCAUGAAGGGCCUCGGG [hsa-mir-486-2]	1.49	1.64	1.74	0.949	3.94
CCCGAGGCCCUUCAUGCUGCCCAGCUCGGG [hsa-mir-486-1]	1.19	0.727	0.473	0.923	0.819
CCCGGAUACCUCAGAAAUUCGG [hsa-mir-760]	0.267	-0.0213	-0.07	-0.461	-0.822
CCCGGCCGGCAGCCCCCGGCCUUAAAGCGCGGG [hsa-mir-4741]	2.16	0.228	-0.112	0.194	0.653
CCCGUAGGACACCGAGGCUUAUGAAUAGGA [hsa-mir-6081]	0.62	0.345	-0.16	0.141	-0.941
CCCUAGGACUUACUUGUGCAGGG [hsa-mir-4253]	-0.69	-0.303	-0.256	-0.403	-0.421
CCCUCAUAUGGCAGUUGGCGAGGGCCCAGUGAG [hsa-mir-6769a]	1.53	1.33	0.974	0.582	2.45
CCCUGCACUCAGUUUGCACAGGG [hsa-mir-4511]	0.0492	-0.122	-0.159	-0.184	0.204
CCCUGCCCAGUGCAGGAG [hsa-mir-6069]	-0.914	-0.817	-0.42	-0.478	0.386
CCCUGGGGAGCUGCUGCAGGCAGCAGGUGGGCGGGACGCCAGCAGGCUGUCUAGCUGUUCCCAUGAUGG [hsa-mir-6843]	2.24	1.81	0.919	0.49	2.14
CCCUGGUCAGACUCUCCGGGG [hsa-mir-4675]	-0.561	-0.368	-0.139	-0.287	-0.63
CCCUUGUCUUCCCAGAG [hsa-mir-4739]	-0.0951	-0.358	-0.28	-0.41	-1.22
CCGACUCGGGCUCUGGAGCAGUC [hsa-mir-152]	0.692	1.09	0.836	0.274	0.748
CCGACUCUGAGUAUGAUAGAAGUC [hsa-mir-148a]	2.33	1.48	0.905	0.613	-1.56
CCGAGUGAUCUCGGU [hsa-mir-8071-1_8071-2]	-0.0845	-0.685	-0.581	-0.324	-1.48
CCGCCCUCGUGUCUGUGGCGGUGG [hsa-mir-663a]	0.679	0.334	0.171	-0.231	0.239

— the supplement of paper PMC11865577
